Measurements taken from US20030170203A1 (Human Genome Sciences, published 2003).

What was measured:
Experiment in all cases: flow cytometry on transiently transfected cells
[1] = target: T1, TNFR2 on transiently transfected cells (UniProt P20333 23-461, limits assumed)
T1 construct: whole, on cells
T1 sequence (looked up): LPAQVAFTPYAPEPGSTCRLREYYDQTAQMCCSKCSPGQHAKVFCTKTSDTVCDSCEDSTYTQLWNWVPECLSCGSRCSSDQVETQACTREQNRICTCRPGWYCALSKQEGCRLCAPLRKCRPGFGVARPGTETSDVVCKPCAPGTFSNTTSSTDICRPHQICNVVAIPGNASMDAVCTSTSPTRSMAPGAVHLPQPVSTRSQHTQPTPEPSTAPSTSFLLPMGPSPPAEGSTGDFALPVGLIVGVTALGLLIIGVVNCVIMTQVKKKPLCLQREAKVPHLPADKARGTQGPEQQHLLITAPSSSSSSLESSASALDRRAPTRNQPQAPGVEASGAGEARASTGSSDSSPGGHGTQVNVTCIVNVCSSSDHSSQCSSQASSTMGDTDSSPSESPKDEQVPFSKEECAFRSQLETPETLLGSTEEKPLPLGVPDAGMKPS
Description: (§1) One million cells, in 0.1 ml of FACS buffer (PBS, 0.1% BSA, 0.1% NaN₃), were incubated with 0.1-1 microgram of protein or antibody at RT for 15 min. The cells were washed with 3 ml of FACS buffer, reacted with biotinylated primary antibody, and stained with PE-conjugated secondary antibody at RT for 15 min. Cells were then washed again, resuspended in 0.5 microgram/ml of propidium iodide, and live cells were gated and analyzed on a FACScan using the CellQuest software (BD Biosciences).

[2] = target: T2, 4-1BB on transiently transfected cells (UniProt Q07011 24-255, limits assumed)
T2 construct: whole, on cells
Description: as §1

[3] = target: T3, CD27 on transiently transfected cells (UniProt P26842 20-260, limits assumed)
T3 construct: whole, on cells
T3 sequence (looked up): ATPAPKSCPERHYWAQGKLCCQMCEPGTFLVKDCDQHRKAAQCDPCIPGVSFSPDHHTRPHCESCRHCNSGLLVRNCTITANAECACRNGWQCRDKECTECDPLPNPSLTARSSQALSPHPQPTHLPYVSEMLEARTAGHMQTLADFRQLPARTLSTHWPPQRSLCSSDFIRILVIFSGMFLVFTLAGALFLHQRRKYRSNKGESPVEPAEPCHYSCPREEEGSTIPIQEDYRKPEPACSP
Description: as §1

[4] = target: T4, BCMA on transiently transfected cells (UniProt Q02223 1-184, limits assumed)
T4 construct: whole, on cells
T4 sequence (looked up): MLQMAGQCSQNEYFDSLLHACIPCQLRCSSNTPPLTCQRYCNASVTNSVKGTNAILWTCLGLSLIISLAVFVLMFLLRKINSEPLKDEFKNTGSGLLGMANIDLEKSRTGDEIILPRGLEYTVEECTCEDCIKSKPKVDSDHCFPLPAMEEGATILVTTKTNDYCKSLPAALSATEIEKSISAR
Description: as §1

[5] = target: T5, DR5 on transiently transfected cells (UniProt O14763 56-440, limits assumed)
T5 construct: whole, on cells
Description: as §1

[6] = target: T6, DcR1 on transiently transfected cells (UniProt O14798 26-236, limits assumed)
T6 construct: whole, on cells
T6 sequence (looked up): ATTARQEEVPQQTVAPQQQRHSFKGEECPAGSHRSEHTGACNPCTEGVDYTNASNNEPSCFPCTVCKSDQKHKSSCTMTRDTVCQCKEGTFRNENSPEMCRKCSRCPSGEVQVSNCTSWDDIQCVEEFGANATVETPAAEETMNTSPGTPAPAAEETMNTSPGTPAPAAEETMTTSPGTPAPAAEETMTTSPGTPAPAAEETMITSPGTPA
Description: as §1

[7] = target: T7, DcR2 on transiently transfected cells (UniProt Q9UBN6 56-386, limits assumed)
T7 construct: whole, on cells
T7 sequence (looked up): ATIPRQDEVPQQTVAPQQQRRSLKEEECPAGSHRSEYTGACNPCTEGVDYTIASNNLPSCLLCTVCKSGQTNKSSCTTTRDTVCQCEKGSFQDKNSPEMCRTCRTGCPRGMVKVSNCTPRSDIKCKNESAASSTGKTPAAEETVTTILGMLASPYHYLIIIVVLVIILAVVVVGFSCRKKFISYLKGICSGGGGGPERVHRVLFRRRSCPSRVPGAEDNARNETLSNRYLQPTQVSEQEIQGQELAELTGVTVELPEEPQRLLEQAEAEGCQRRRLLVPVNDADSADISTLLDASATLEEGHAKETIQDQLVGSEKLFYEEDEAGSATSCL
Description: as §1

[8] = target: T8, HveA on transiently transfected cells (UniProt Q92956 39-283, limits assumed)
T8 construct: whole, on cells
T8 sequence (looked up): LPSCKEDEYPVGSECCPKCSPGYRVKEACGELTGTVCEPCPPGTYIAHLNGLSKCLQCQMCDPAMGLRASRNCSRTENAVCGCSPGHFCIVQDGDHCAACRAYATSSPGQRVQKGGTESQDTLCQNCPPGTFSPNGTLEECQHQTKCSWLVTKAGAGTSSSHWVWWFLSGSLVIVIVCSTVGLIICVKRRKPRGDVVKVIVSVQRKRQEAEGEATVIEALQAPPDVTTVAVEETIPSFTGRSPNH
Description: as §1

[9] = target: T9, AITR on transiently transfected cells (UniProt Q9Y5U5 26-241, limits assumed)
T9 construct: whole, on cells
T9 sequence (looked up): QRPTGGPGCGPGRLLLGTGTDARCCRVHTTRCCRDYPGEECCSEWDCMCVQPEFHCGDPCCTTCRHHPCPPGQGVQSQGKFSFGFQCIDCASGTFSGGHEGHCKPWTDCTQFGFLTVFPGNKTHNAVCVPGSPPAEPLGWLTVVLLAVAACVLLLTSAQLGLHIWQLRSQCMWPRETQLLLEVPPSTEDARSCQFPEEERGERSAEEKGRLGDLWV
Description: as §1

Measured: binding result

T2 sequence (Q07011 24-255 limits assumed): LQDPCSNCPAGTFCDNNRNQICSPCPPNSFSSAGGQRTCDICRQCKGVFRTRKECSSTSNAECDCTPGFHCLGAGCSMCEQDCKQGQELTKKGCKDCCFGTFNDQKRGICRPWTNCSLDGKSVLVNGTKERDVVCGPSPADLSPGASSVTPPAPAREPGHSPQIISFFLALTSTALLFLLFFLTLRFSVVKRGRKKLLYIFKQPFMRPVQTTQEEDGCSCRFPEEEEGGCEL

B1: FLAG-tagged soluble form of TNF-gamma-beta (aa 72-251) (ligand, human, UniProt O95150 72-251, looked up)
chain: LKGQEFAPSHQQVYAPLRADGDKPRAHLTVVRQTPTQHFKNQFPALHWEHELGLAFTKNRMNYTNKFLLIPESGDYFIYSQVTFRGMTSECSEIRQAGRPNKPDSITVVITKVTDSYPEPTQLLMGTKSVCEVGSNWFQPIYLGAMFSLQEGDKLMVNVSDISLVDYTKEDKTFFGAFLL
notes: also called FLAG-TL1β; FLAG-TNF-gamma-beta; not shown: FLAG tag of vector pFLAGCMV1
no binding: all assays above
